Laboratory results as given in patent US20250221936A1, “ENGINEERED HEMICHANNELS, ENGINEERED VESICLES, AND USES THEREOF” (VIRGINIA TECH INTELLECTUAL PROPERTIES, INC., priority 2018, published 2025).
“Also recorded” adds a separate entry of the source.

Legend:
ZO-1 PDZ2 = target: T1, ZO-1 PDZ2 (Homo sapiens, UniProt Q07157); assay: Protein thermal shift assay, ZO-1 PDZ2; assay type: binding; details: 500 μg/ml protein, 25-100 μM peptide
T1 construct: the second of the three PDZ (PDZ2) domains of ZO-1; made in house; host or cells: E. coli BL21
T1 sequence (Q07157 186-264 limits assumed): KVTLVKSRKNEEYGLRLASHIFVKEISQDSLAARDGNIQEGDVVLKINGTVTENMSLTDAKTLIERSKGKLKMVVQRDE
Description: (§1) Thermal stability of recombinant GST-PDZ2 or Cx43 CT in the presence or absence of peptides was determined in a 96-well format. Each assay well was composed of 500 μg/ml protein, 25-100 μM of each peptide in PBS buffer, pH7.4. All assays were performed independently six times. Samples were generally prepared in 96-well plates at final volumes of 20 μL. The fluorescent dye SYPRO Orange (5000× concentrate in DMSO, ThermoFisher, S6650) was added to a final concentration of 8X. Reactions were run on QuantStudio 6 Flex Real-Time PCR system (Applied Biosystems, part of Life Technologies Corporation, CA) according to the manufacturer's recommendations using a melt protocol in 0.05-degree/see increments from 25° C. to 95° C. The Reporter Dye was “ROX” and quencher Dye and passive reference were selected as “None” for the melt curve according to manufacturer's instructions. The data were analyzed using Protein Thermal Shift™ Software v1.3 package (Applied Biosystems, CA).

Cx43 CT = target: T2, Cx43 CT (Rattus norvegicus, UniProt P08050); assay: Protein thermal shift assay, Cx43 CT; assay type: binding; details: 500 μg/ml protein, 25-100 μM peptide
T2 construct: CT: amino acids 255 to 382) alone; GST (N); made in house; host or cells: E. coli BL21
Description: as §1

adult mouse hearts = assay: Langendorff ischemia-reperfusion (I/R) injury, LV contractility; details: for recovery of LV contractile performance during reperfusion: pre-ischemic 20-minute peptide infusion, 20 min ischemia, 40 min reperfusion
Description: Male, 3-month-old, body weight 25±5 g C57BL/6 mice were used for this study and obtained from Charles River. Animals were randomly assigned to experimental groups and Left ventricular (LV) function was measured and myocardial ischemia-reperfusion injury (I/R) was induced as previously described^23. Briefly, 15 minutes after the injection of heparin at a dose of 200U/10 g body weight, the mouse was anesthetized by inhalation of isoflurane vapor and subjected to cervical dislocation upon the cessation of respiration. Thoracotomy was immediately performed and the heart excised. The heart was arrested in ice-cold Krebs-Henseleit (KH) buffer (in mM: 25 NaHCO3, 0.5 EDTA, 5.3 KCl, 1.2 MgSO4, 0.5 pyruvate, 118 NaCl, 10 glucose, 2.5 CaCl2). The aorta was isolated and cannulated in a Langendorff perfusion system. The heart was then perfused at a constant pressure of 75 mmHg with KH buffer, which was continually bubbled with 5% CO2/95% O2 at 37° C. Effluent from the Thebesian veins was drained by a thin polyethylene tube (PE-10) pierced through the apex of the LV. A water-filled balloon made of polyvinylchloride film was inserted in the LV and connected to a blood pressure transducer (Harvard Apparatus, 733866, MA). After a 30-minute stabilization period, a balloon volume (BV) generating an LV end-diastolic-pressure (EDP) of 0 mmHg, was determined for the heart. The BV was then increased stepwise up through 1, 2, 5, 8, 10, 12, 15, 18, 20, 25, 30 μl increments of 1-5 μl and contractile performance were recorded for 10 seconds at each step. The indexes of cardiac function were amplified by a Transducer Amplifier Module (Harvard Apparatus, 730065, MA). Data was recorded and analyzed using PowerLab 4/35 (ADInstruments, PL3504, CO) and LabChart V7 (ADInstruments, CO). The BV was then adjusted to set EDP at about 8-10 mmHg and held constant during the ensuing steps of the protocol. Baseline function (determined by EDP at about 8-10 mmHg) was recorded for 5 minutes. The perfused beating heart were then treated with freshly prepared peptide stocks (0.2 mM), which were infused using syringe pump (Kent Sci, CT) into the perfusion buffer in a mixing chamber above the heart at 5% of coronary flow rate, to deliver final concentrations of 10-50 μM or equivalent vehicle for 20 minutes. At the end of the peptide infusion period hearts were subjected to global, no-flow normothermic ischemia by turning off the perfusion flow for 20 min, followed by a reperfusion phase for 40 min. BV was retaken through the stepwise sequence of 1-5 μl increments between 1 and 30 μl, with contractile performance again being recorded for 10 seconds at each step. Cardiac LV function was recorded throughout the procedure. In the case of post-ischemic treatment with alpha CT11 peptide, peptide infusion was begun at the initiation of the reperfusion phase, continued for 20 minutes and then contractile function by BV increments was taken as per the other hearts. A set of hearts were freeze-clamped immediately after peptide infusion for Western blotting. The protocol is illustrated in FIG. 9.

T2 sequence (P08050 255-382): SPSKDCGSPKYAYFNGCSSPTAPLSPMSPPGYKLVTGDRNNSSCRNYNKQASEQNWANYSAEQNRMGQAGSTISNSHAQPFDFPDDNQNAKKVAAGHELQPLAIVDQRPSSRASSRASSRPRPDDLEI

Row | Sequence | PDZ2 melt temperature (Tm) (ZO-1 PDZ2) | Cx43 CT melt temperature (Tm) (Cx43 CT) | recovery of LV contractile performance during reperfusion (adult mouse hearts) | PDZ2 melt temperature (Tm) (ZO-1 PDZ2; listed as M3) | recovery of LV function (adult mouse hearts; 20-minute peptide infusion at initiation of reperfusion (post-ischemic)) | cardiac muscle loss (adult mouse hearts; ex vivo I/R injury)
1 | RQPKIWFPNRRKPWKK RPRPAALAI (RQPKIWFPNRRKPWKKRPRPAALAI) [M1 AALAI] | did not alter the melt temperature of PDZ2 | no propensity to alter Cx43 CT thermal stability | no ability to improve recovery |  |  | 
2 | RQPKIWFPNRRKPWKKRPRPDDLAI [M3 DDLAI] | evidence of significant interaction with its ZO-1-binding domain | no propensity to alter Cx43 CT thermal stability | no ability to improve recovery | significantly increase the Tm of |  | 
3 | RQPKIWFPNRRKPWKKRPRPDDLE [alpha CT1-I] | PDZ2 interaction incompetent | highly significant decreases in melt temperature | significant functional recovery after I/R injury |  |  | 
4 | RQPKIWFPNRRKPWKKRPRPDDLEI [alpha CT1] | significantly increase the Tm of; also recorded: increased the melt temperature of PDZ2 in a dose-dependent manner | highly significant decreases in melt temperature | notable recovery of LV function during reperfusion; also recorded: significant functional recovery after I/R injury |  | did not result in significant recovery of LV function | reduce cardiac muscle loss by more than half
